Reference: patent US20210063414A1, “METHODS FOR PREVENTING AND/OR TREATING BONE LOSS CONDITIONS BY MODULATING IRISIN” (Dana-Farber Cancer Institute, Inc., priority 2018, published 2021)

Experiment: Half-life of recombinant his-tag irisin in vivo, plasma immunoblot against his-tag
Conditions: C57BL/6 mice, 1 mg/kg I.P.
Procedure: C57BL/6 mice were injected with irisin (1 mg/kg, I.P.) or sterilized PBS and blood was collected at indicated time point. Irisin in plasma was detected using immunoblot analysis against his-tag.

B1: irisin: secreted cleaved form of FNDC5; recombinant human/mouse irisin with C-terminal his tag produced in HEK293 cells (protein)
chain: DSPSAPVNVTVRHLKANSAVVSWDVLEDEVVIGFAISQQKKDVRMLRFIQEVNTTTRSCALWDLEEDTEYIVHVQAISIQGQSPASEPVLFKTPREAEKMASKNKDEVTMKE
modifications: left off: small tags and cut ends
notes: secreted cleaved form of FNDC5; recombinant human/mouse irisin with C-terminal his tag produced in HEK293 cells
half-life in vivo: less than an hour
